Measurements as given in the supplement of paper PMC7125110.
± gives the standard error. For some assays here: This sample holds only a part of the variants without activity.

B1: glmS ribozyme (parent)
chain: AUAAAAGCGCCAGAACUACAGAAAUGUAGUUGACGAGGAGGAGGUUUAUCGAAUUUUCGGCGGAUGCCUCCAAA

Experiments:
Conditions in all cases: with glucosamine-6-phosphate
glucosamine-6-phosphate [1] = variants of: B1; experiment: kcat; higher = faster cleavage; RNA array
In short: (§1)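 On sequenced MiSeq chips, barcoded ribozyme variants were made in situ by E. coli RNA polymerase and followed at 37 °C through a hybridised Cy3 probe. Glucosamine-6-phosphate was flowed in at 40 μM to 10 mM in HEPES/KCl/Mg(OAc)2 buffer. Exponential fits to normalised per-tile medians gave kobs, and weighted Michaelis–Menten fits gave kcat and KM.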

glucosamine-6-phosphate [2] = variants of: B1; experiment: self-cleavage kobs at 640 uM GlcN6P; higher = faster cleavage; RNA array
In short: as §1

glucosamine-6-phosphate [3] = variants of: B1; experiment: self-cleavage kobs at 2500 uM GlcN6P; higher = faster cleavage; RNA array
In short: as §1

glucosamine-6-phosphate [4] = variants of: B1; experiment: self-cleavage kobs at 10000 uM GlcN6P; higher = faster cleavage; RNA array
In short: as §1

glucosamine-6-phosphate [5] = variants of: B1; experiment: KM; higher = weaker cofactor use; RNA array
In short: as §1

glucosamine-6-phosphate [6] = variants of: B1; experiment: self-cleavage kobs at 40 uM GlcN6P; higher = faster cleavage; RNA array
In short: as §1

glucosamine-6-phosphate [7] = variants of: B1; experiment: self-cleavage kobs at 160 uM GlcN6P; higher = faster cleavage; RNA array
In short: as §1

Variant	kcat (glucosamine-6-phosphate [1]) [s⁻¹]	self-cleavage kobs at 640 uM GlcN6P (glucosamine-6-phosphate [2]) [s⁻¹]	self-cleavage kobs at 2500 uM GlcN6P (glucosamine-6-phosphate [3]) [s⁻¹]	self-cleavage kobs at 10000 uM GlcN6P (glucosamine-6-phosphate [4]) [s⁻¹]	KM (glucosamine-6-phosphate [5]) [µM]	self-cleavage kobs at 40 uM GlcN6P (glucosamine-6-phosphate [6]) [s⁻¹]	self-cleavage kobs at 160 uM GlcN6P (glucosamine-6-phosphate [7]) [s⁻¹]
A48U U54C	0.000526 ± 0.00015	5.32e-05 ± 1.7e-05	0.000255 ± 5.1e-05	0.000349 ± 6.3e-05			
U54C A64C	0.000257 ± 3.3e-05	3.19e-05 ± 1e-05	0.000124 ± 2e-05	0.000185 ± 2.1e-05	3560 ± 1000		
C16U A64G	0.018 ± 0.0074	0.00457 ± 0.00072	0.0111 ± 0.0028	0.0176 ± 0.0031		0.000665 ± 7.5e-05	0.00126 ± 0.00023
A15C C70A	6.11e-05 ± 1.2e-05	5.56e-05 ± 1.2e-05	9.56e-05 ± 1.5e-05	4.95e-05 ± 8.2e-06			3.37e-05 ± 1.6e-05
C61U U69A	4.43e-05 ± 1.5e-05	4.2e-05 ± 1.3e-05	6.76e-05 ± 1.9e-05				3.86e-05 ± 1.8e-05
C58A C67A	0.000182 ± 3.1e-05	3.37e-05 ± 1.2e-05	0.000146 ± 4e-05	0.000144 ± 2e-05	2300 ± 1000		
U30A U46A	0.00042 ± 5.2e-05		0.000372 ± 0.0001	0.000363 ± 5.1e-05			
U56A U69A	9.71e-05 ± 1.6e-05	8.46e-05 ± 1.2e-05	0.000155 ± 2.3e-05	8.66e-05 ± 1.1e-05		4e-05 ± 1.1e-05	5e-05 ± 1.3e-05
A12G C67G	0.000322 ± 4.9e-06	8.36e-05 ± 8.2e-06	0.000182 ± 1.7e-05	0.000273 ± 1.9e-05	1850 ± 62		2.45e-05 ± 1.1e-05
G44U	0.000429 ± 5.3e-05	0.000101 ± 2.1e-06	0.000282 ± 6.2e-06	0.000335 ± 6.6e-06	2040 ± 470		2.34e-05 ± 1.7e-06
C68U U69G	2.33e-05 ± 5.5e-06		3.45e-05 ± 1.6e-05				
C34U C68A	1.2e-05 ± 1.8e-06						
G29C U55C	0.00285 ± 0.001	0.000561 ± 0.0001	0.00116 ± 0.00023	0.00205 ± 0.00062	3510 ± 1600	5.28e-05 ± 1.7e-05	0.00011 ± 1.7e-05
C61G C67G	1.22e-05 ± 1.5e-06						
A15U U31A	0.00127 ± 0.00026	0.000289 ± 5.3e-05	0.000874 ± 0.00015	0.00101 ± 9.8e-05	2230 ± 880	3.45e-05 ± 7.5e-06	4.67e-05 ± 2e-05
U56A U65A	0.00156 ± 0.00058	0.000368 ± 5.1e-05	0.000569 ± 9.2e-05	0.00148 ± 0.00021		4.51e-05 ± 1.1e-05	7.79e-05 ± 1.3e-05
